From patent publication US20210238276A1 (INTEGRAL MOLECULAR, published 2021)
Substitutions are numbered along the chain they refer to. Each block holds one molecule with its values, some of them ahead of it.

How the values were obtained:
Test in all cases: flow cytometry, alanine-scan library in HEK-293T
hsGLUT4 L155A = molecular target: T1, hsGLUT4 L155A (human, UniProt P14672 1-509)
T1 sequence: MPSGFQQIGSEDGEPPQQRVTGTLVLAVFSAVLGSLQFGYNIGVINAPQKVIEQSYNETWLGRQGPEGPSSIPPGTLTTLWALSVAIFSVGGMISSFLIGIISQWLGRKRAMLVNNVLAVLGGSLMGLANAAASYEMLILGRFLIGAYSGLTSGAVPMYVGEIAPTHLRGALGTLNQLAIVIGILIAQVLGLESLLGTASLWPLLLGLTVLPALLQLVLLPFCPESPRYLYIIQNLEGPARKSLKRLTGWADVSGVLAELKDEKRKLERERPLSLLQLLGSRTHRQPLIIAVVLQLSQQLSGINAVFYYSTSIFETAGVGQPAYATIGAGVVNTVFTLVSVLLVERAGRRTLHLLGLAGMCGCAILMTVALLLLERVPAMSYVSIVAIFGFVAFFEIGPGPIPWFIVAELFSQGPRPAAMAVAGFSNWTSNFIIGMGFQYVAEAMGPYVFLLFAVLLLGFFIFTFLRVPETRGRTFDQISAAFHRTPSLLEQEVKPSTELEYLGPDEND
Method in brief: (§1)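 HEK-293T cells expressing individual GLUT4 alanine mutants were stained 48 h post-transfection with anti-GLUT4 scFv MAbs (2 μg/ml), then biotinylated secondary and streptavidin-PerCP, and read by high-throughput flow cytometry. Where used, cytochalasin B (10 uM final) was given for 30 min before and during primary antibody staining.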

hsGLUT4 E315A = molecular target: T2, hsGLUT4 E315A (human, UniProt P14672 1-509)
T2 sequence: T1 sequence with A155L, E315A
Method in brief: as §1

hsGLUT4 Y502A = molecular target: T3, hsGLUT4 Y502A (human, UniProt P14672 1-509)
T3 sequence: T1 sequence with A155L, Y502A
Method in brief: as §1

hsGLUT4 L296A = molecular target: T4, hsGLUT4 L296A (human, UniProt P14672 1-509)
T4 sequence: T1 sequence with A155L, L296A
Method in brief: as §1

B1: AB111 (Fc fusion)
scFv: ALTQPSSVSANPGETVKITCSGSGSWYGWFQQKSPGSAPVTVIYSNDKRPSDIPSRFSGSKSGSTSTLTITGVQVEDEAVYYCGNWDIFGAGTTLTVLGQSSRSSGGGGSSGGGGSAVTLDESGGGLQTPGGALSLVCKASGFTFSSHGMGWVRQAPGKGLEWVASISTGRYTFYAPAVKGRATISRDNGQSTVRLQLNNLRAEDTATYYCTKCAGLNGCGGGEIDAWGHGTEVIVSS
notes: Bivalent scFv-Fc; also called MAb AB111; not shown: Fc fragment of human IgG1, cloned in frame with the scFv
- % of binding to wild type GLUT4 (hsGLUT4 L155A): 57%
- % of binding to wild type GLUT4 (hsGLUT4 E315A): 164%
- % of binding to wild type GLUT4 (hsGLUT4 Y502A): 169%
- % of binding to wild type GLUT4 (hsGLUT4 L296A): 144%

B2: AB108 (Fc fusion)
scFv: ALTQPSSVSANLGGTVKITCSGSSGSYGWYQQKAPGSAPVTLIYRNDKRPSDIPSRFSGSESGSTGTLTITGVQAEDEAVYFCGGYDSSAGYAAFGAGTTLTVLGQSSRSSGGGGSSGGGGSAVTLDESGGGLQTPGGALSLVCKASGFTFSSHGMGWVRQAPGKGLEWVGSISTGRYTFYAPAVKGRATISRDNGQSTLRLQLNNLRAEDTGTYYCTKCAGLNGCGGGEIDAWGHGTEVIVSS
notes: Bivalent scFv-Fc; also called MAb AB108; not shown: Fc fragment of human IgG1, cloned in frame with the scFv
- % of binding to wild type GLUT4 (hsGLUT4 L155A): 42%
- % of binding to wild type GLUT4 (hsGLUT4 E315A): 96%
- % of binding to wild type GLUT4 (hsGLUT4 Y502A): 94%
- % of binding to wild type GLUT4 (hsGLUT4 L296A): 72%

The next lines start with the values.

- % of binding to wild type GLUT4 (hsGLUT4 L155A): 91%
- % of binding to wild type GLUT4 (hsGLUT4 E315A): 93%
- % of binding to wild type GLUT4 (hsGLUT4 Y502A): 51%
- % of binding to wild type GLUT4 (hsGLUT4 L296A): 105%
Molecule: 1F8 (antibody)

- % of binding to wild type GLUT4 (hsGLUT4 L155A): 88%
- % of binding to wild type GLUT4 (hsGLUT4 E315A): 130%
- % of binding to wild type GLUT4 (hsGLUT4 Y502A): 4%
- % of binding to wild type GLUT4 (hsGLUT4 L296A): 90%
B3: AB101 (scFv)
scFv: ALTQPSSVSANPGETVKITCSGSSNSYGWYQQKSPGSAPVTVIYYNDKRPSDIPSRFSGSKSDSTHTLTITGVRAEDEAVYFCGSYDSTYVGIFGAGTTLTVLGQSSRSSGGGGSSGGGGSAVTLDESGGGLQTPGGTLSLVCKASGFTFSSNAMGWVRQAPGKGLEWVAGISSDGRYTKYGSAVKGRATISRDNGQSTVRLQLNNLRAEDTGTYFCAKAFGNNYRRIYAGQIDAWGHGTEVIVSS
notes: Chicken-derived clone used as a control; the four lead clones were tested as scFv-human IgG1 Fc; also called MAb AB101
